Columns and labels:
[1] = target: RSV F protein of subtype A (strain A2) on recombinant mKate-RSV (Respiratory syncytial virus subtype A (strain A2)) (UniProt P03420); experiment: cell-based or functional assay
[2] = target: human metapneumovirus (HMPV) F protein on GFP-expressing hMPV (NL/1/00, A1 sublineage) (human metapneumovirus); experiment: cell-based or functional assay

Chain of RSV F protein of subtype A (strain A2) on recombinant mKate-RSV (Respiratory syncytial virus subtype A (strain A2)) (P03420 26-574): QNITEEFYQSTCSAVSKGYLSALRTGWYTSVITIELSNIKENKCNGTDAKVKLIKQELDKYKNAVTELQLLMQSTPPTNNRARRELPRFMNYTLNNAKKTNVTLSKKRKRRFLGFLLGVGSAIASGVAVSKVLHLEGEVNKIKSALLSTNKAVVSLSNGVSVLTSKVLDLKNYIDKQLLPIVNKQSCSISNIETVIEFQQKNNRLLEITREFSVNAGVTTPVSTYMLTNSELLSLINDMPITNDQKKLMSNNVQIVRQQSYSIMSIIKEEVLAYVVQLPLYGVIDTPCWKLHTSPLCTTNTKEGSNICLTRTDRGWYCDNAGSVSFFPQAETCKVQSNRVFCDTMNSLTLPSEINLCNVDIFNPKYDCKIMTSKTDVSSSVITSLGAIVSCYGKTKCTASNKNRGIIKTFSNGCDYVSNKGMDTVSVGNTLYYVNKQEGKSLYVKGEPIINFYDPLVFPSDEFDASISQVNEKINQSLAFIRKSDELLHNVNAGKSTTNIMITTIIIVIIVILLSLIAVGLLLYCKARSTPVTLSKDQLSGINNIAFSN

MPE8 (antibody) was tested, and the RSV-A2 IC50 [1] was 0.04 µg/mL and the HMPV-A1 IC50 [2] was 0.07 µg/mL.

— patent US20250313612A1
